{
  "source": "paper PMC3690534",
  "about": "(Molecular Cell, 2013)",
  "binders": {"B1": {"name": "Acm1 central inhibitory region (residues 59-128) (domain or fragment, S. cerevisiae, UniProt Q08981 59-128, looked up)", "chain": "AQFMLYEETAEERNIAVHRHNEIYNNNNSVSNENNPSQVKENL[pS]PAKICPYERAFLREGGRIALKDLSVD"}, "B2": {"name": "Acm1^CIR-mNEN (Acm1^CIR-N90A/E91A/N92A) (domain or fragment, S. cerevisiae, UniProt Q08981 59-128, looked up)", "chain": "AQFMLYEETAEERNIAVHRHNEIYNNNNSVSAAANPSQVKENLSPAKICPYERAFLREGGRIALKDLSVD"}, "B3": {"name": "Acm1^ΔN (Acm1 residues 59-209), wild type (domain or fragment, S. cerevisiae, UniProt Q08981 59-209, looked up)", "chain": "AQFMLYEETAEERNIAVHRHNEIYNNNNSVSNENNPSQVKENLSPAKICPYERAFLREGGRIALKDLSVDEFKGYIQDPLTDETIPLTLPLGDKKISLPSFITPPRNSKISIFFTSKHQGQNPETKISRSTDDVSEKKVVRKLSFHVYEDE"}, "B4": {"name": "Acm1^ΔN-T161A (Acm1 residues 59-209, T161A) (domain or fragment, S. cerevisiae, UniProt Q08981 59-209, looked up)", "chain": "B3 chain with T103A"}},
  "key": {"[1]": {"molecular_target": "T1, Saccharomyces cerevisiae Cdh1 WD40 domain (residues 241-550) (S. cerevisiae, UniProt P53197 241-550)", "T1 sequence (looked up)": "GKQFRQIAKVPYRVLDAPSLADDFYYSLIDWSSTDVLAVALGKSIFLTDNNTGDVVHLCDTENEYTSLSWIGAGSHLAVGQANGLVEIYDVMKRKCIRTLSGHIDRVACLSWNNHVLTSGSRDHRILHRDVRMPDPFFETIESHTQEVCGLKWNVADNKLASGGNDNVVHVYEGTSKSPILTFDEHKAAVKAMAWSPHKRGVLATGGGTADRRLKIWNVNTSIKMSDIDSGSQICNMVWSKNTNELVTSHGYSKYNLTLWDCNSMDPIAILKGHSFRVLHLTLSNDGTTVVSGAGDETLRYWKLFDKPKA", "experiment": "crystal structure"}, "[2]": {"molecular_target": "T1, Saccharomyces cerevisiae Cdh1 WD40 …", "experiment": "SAXS"}, "[3]": {"molecular_target": "T1, Saccharomyces cerevisiae Cdh1 WD40 …", "experiment": "AUC"}, "[4]": {"molecular_target": "T1, Saccharomyces cerevisiae Cdh1 WD40 …", "experiment": "SEC-MALS"}},
  "note": "Numbering of substitutions follows the chain as printed. Names may count otherwise. Square brackets hold non-standard residues; d marks the D form. pS = N[C@@H](COP(=O)(O)O)C(=O)O",
  "data": [
    {"binder": "B1", "values": [
      {"measurement": "binding result", "setting": "[1]", "value": "binds"}
    ]},
    {"binder": "B2", "values": [
      {"measurement": "binding result", "setting": "[2]", "value": "binds"}
    ]},
    {"binder": "B3", "values": [
      {"measurement": "binding result", "setting": "[3]", "value": "binds"}
    ]},
    {"binder": "B4", "values": [
      {"measurement": "binding result", "setting": "[4]", "value": "binds"}
    ]}
  ]
}
